pIC50: −log10 of the molar value.
Key:
Assay in all cases: IEDB peptide-MHC binding, cellular MHC/competitive/fluorescence; ≥ and ≤ were set here for values at or beyond the usual limits of such assays
HLA-A*02:01 = biological target: HLA-A*02:01
HLA-A*68:02 = biological target: HLA-A*68:02
HLA-A*02:02 = biological target: HLA-A*02:02
HLA-A*02:03 = biological target: HLA-A*02:03
HLA-A*02:06 = biological target: HLA-A*02:06
[1] = source organism: Influenza A virus
[2] = source organism: Vaccinia virus WR
[3] = source organism: Mammarenavirus guanaritoense

Sequence | pIC50 (HLA-A*02:01; [2]) | pIC50 (HLA-A*68:02; [2]) | pIC50 (HLA-A*02:02; [2]) | pIC50 (HLA-A*02:03; [2]) | pIC50 (HLA-A*02:06; [2]) | other results
PAEMLANI |  |  |  |  |  | pIC50 (HLA-A*02:01; [1]): ≤ 4.15; pIC50 (HLA-A*68:02; [1]): ≤ 4.15; pIC50 (HLA-A*02:02; [1]): ≤ 4.15; pIC50 (HLA-A*02:03; [1]): ≤ 4.15; pIC50 (HLA-A*02:06; [1]): ≤ 4.15
ALEPRKEIDV | 4.57 | ≤ 4.15 | 5.08 | 4.95 | 4.20 | 
TVDHMAII |  |  |  |  |  | pIC50 (HLA-A*02:01; [1]): ≤ 4.15; pIC50 (HLA-A*68:02; [1]): 4.40; pIC50 (HLA-A*02:02; [1]): ≤ 4.15; pIC50 (HLA-A*02:03; [1]): 4.88; pIC50 (HLA-A*02:06; [1]): 4.38
VIRHVDGKIL | ≤ 4.15 | ≤ 4.15 | ≤ 4.15 | 4.48 | ≤ 4.15 | 
GTKGKLYIAL | 4.78 | 5.12 | 5.04 | 5.11 | 4.43 | 
AIDRQVSVKL | 4.85 | 4.28 | 5.10 | 4.88 | 4.50 | 
TATKRIRMA |  |  |  |  |  | pIC50 (HLA-A*02:01; [1]): 4.47; pIC50 (HLA-A*68:02; [1]): ≤ 4.15; pIC50 (HLA-A*02:02; [1]): 4.32; pIC50 (HLA-A*02:03; [1]): 4.62; pIC50 (HLA-A*02:06; [1]): 4.45
KTEHCDDFMT | 5.12 | ≤ 4.15 | 5.11 | 4.42 | 4.94 | 
PACVYGPA |  |  |  |  |  | pIC50 (HLA-A*02:01; [1]): ≤ 4.15; pIC50 (HLA-A*68:02; [1]): ≤ 4.15; pIC50 (HLA-A*02:02; [1]): 4.85; pIC50 (HLA-A*02:03; [1]): ≤ 4.15; pIC50 (HLA-A*02:06; [1]): ≤ 4.15
DVKVLAARL | 4.92 | 5.10 | 5.21 | 4.97 | 5.00 | 
DVCKKNLDL | 4.71 | 4.39 | 4.59 | 5.10 | 4.79 | 
VIPFDDIVRT | 4.61 | 4.37 | 4.20 | 4.30 | 4.74 | 
EIDVSEVKT | ≤ 4.15 | 4.70 | 4.34 | ≤ 4.15 | ≤ 4.15 | 
VAKCCSKTNT | 4.68 | ≤ 4.15 | 4.83 | 4.66 | 4.39 | 
PTNDIPSLFI | 4.74 | 4.61 | 4.96 | 4.21 | 4.83 | 
PLSPDTCLLA | 5.16 | 4.82 | 4.95 | 5.03 | 4.70 | 
PTEMVDVSMM | 4.38 | ≤ 4.15 | 4.94 | ≤ 4.15 | 4.92 | 
AIKSNNHLT | 4.57 | 4.34 | 4.30 | 4.54 | ≤ 4.15 | 
YVEHDPRLVA | 4.24 | 4.51 | 4.73 | 4.79 | 4.92 | 
DIDLLFNEKL | 5.24 | 4.80 | 4.95 | 4.57 | 4.59 | 
ATKRIRMA |  |  |  |  |  | pIC50 (HLA-A*02:01; [1]): 4.37; pIC50 (HLA-A*68:02; [1]): 4.23; pIC50 (HLA-A*02:02; [1]): 4.23; pIC50 (HLA-A*02:03; [1]): 4.92; pIC50 (HLA-A*02:06; [1]): ≤ 4.15
EIITGNKVKT | ≤ 4.15 | ≤ 4.15 | ≤ 4.15 | ≤ 4.15 | ≤ 4.15 | 
YVIGLLPQS |  |  |  |  |  | pIC50 (HLA-A*02:01; [3]): ≤ 4.15; pIC50 (HLA-A*68:02; [3]): ≤ 4.15; pIC50 (HLA-A*02:02; [3]): ≤ 4.15; pIC50 (HLA-A*02:03; [3]): ≤ 4.15; pIC50 (HLA-A*02:06; [3]): 4.32
AAFEDLRV |  |  |  |  |  | pIC50 (HLA-A*02:01; [1]): 4.50; pIC50 (HLA-A*68:02; [1]): ≤ 4.15; pIC50 (HLA-A*02:02; [1]): 4.54; pIC50 (HLA-A*02:03; [1]): 5.14; pIC50 (HLA-A*02:06; [1]): 4.73
IAEYIAGLKI | 5.11 | 5.23 | 4.54 | 4.64 | 4.99 | 
PMIIGEPIIV | 4.58 | ≤ 4.15 | ≤ 4.15 | 5.05 | ≤ 4.15 | 

Source: the Immune Epitope Database (IEDB)
